Laboratory results published in patent US11548923B2, “Peptide compositions and methods of use thereof for disrupting TEAD interactions” (Fred Hutchinson Cancer Center, priority 2017, dated 2023).

Key:
[1] = SYPRO Orange thermal shift (melting) assay; type: physicochemical; conditions: heating from 20° C. to 95° C.
Procedure: Thermal Shift Assay. Protein melting temperature (Tm) determination can be performed by monitoring protein unfolding using SYPRO Orange dye (Molecular Probes). In brief, 0.1 mg/mL protein sample in 20 μL total volume PBS buffer can be mixed with 2 μL of 10×SYPRO Orange dye. Dye intercalation into the hydrophobic protein core following protein unfolding was assayed using the C1000 Touch Thermal Cycler with CFX96 Deep Well Real-Time System (BioRad). Samples were heated from 20° C. to 95° C. with stepwise increments of 0.5° C. per minute and a 5 see hold step for every point, followed by fluorescence reading. Tm were calculated by analyzing the derivatives of Relative florescence Units (RFU).
Protein secondary structures were assessed using Circular Dichroism (CD). CD spectra were measured with a Jasco J-720W spectropolarimeter using a 1.0 mm path length cell. Protein samples in 10 mM phosphate buffer (pH=7.4) were at 25-30 μM protein concentration. Samples were analyzed at wavelength ranges of 260-190 nM. Data were expressed in terms of relative ellipticity; (mdeg). […] Samples were heated from 20° C. to 95° C. with stepwise increments of 0.5° C. per minute and a 5 sec hold step for every point, followed by fluorescence reading. Tm was calculated by analyzing the derivatives of Relative florescence Units (RFU). […]

biotinylated TEAD = target: T1, biotinylated TEAD (Homo sapiens, UniProt P28347); assay: Surface plasmon resonance (SPR) binding of soluble peptides to captured biotinylated TEAD; conditions: biotinylated TEAD immobilized on an SPR chip, read-out: dissociation constant (KD)
T1 construct: GST; made in house; host or cells: Hi5 insect cells (baculovirus, BacMagic, pIEX-BAC3)

[2] = system: HeLa cells expressing the HaloEnzyme; type: cell-based; conditions: 1 μM HT-labeled peptide, 4 hours
Procedure: HeLa cells expressing the HaloEnzyme (a modified bacterial haloalkane dehalogenase, further modified to target to the cytosol-facing side of the outer mitochondrial membrane) were grown in 24 well dishes until ˜60% confluent. […] After incubation, cells were rinsed and incubated with Opti-MEM for 30 minutes, and were then incubated with 5 μM HT-TAMRA ligand (Promega G8251) for 30 minutes. An additional control with no HT-TAMRA was tested. After this incubation, cells were rinsed with PBS and then imaged on a fluorescent microscope in FITC/green (all cells) and TRITC/red (HT-TAMRA accumulation) channels.
FIG. 28 illustrates cell-by-cell quantitation of average fluorescence in the red channel of cells in a CAPA.

T1 sequence (P28347 209-426): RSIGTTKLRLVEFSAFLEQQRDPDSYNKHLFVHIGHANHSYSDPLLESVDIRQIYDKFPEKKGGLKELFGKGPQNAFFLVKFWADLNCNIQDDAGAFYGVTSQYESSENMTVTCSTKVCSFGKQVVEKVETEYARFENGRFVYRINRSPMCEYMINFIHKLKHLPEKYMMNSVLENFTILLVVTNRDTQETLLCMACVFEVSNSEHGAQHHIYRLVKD

B1: Human siderocalin: Human siderocalin (HuScn), control protein in SYPRO Orange melting assay (protein, UniProt P80188 21-198, looked up)
Neutrophil …: QDSTSDLIPAPPLSKVPLQQNFQDNQFQGKWYVVGLAGNAILREDKDPQKMYATIYELKEDKSYNVTSVLFRKKKCDYWIRTFVPGCQPGEFTLGNIKSYPGLTSYLVRVVSTNYNQHAMVFFKKVSQNREYFKITLYGRTKELTSELKENFIRFSKSLGLPENHIVFPVPIDQCIDG
melting temperature [1]: 79 °C

B2: Siderocalin-fused YAP: YAP (50-171) produced as a soluble siderocalin fusion (protein)
chain: QDSTSDLIPAPPLSKVPLQQNFQDNQFQGKWYVVGLAGNAILREDKDPQKMYATIYELKEDKSYNVTSVLFRKKKCDYWIRTFVPGCQPGEFTLGNIKSYPGLTSYLVRVVSTNYNQHAMVFFKKVSQNREYFKITLYGRTKELTSELKENFIRFSKSLGLPENHIVFPVPIDQCIDGAGHQIVHVRGDSETDLEALFNAVMNPKTANVPQTVPMRLRKLPDSFFKPPEPKSHSRQASTDAGTAGALTPQHVRAHSSPASLQLGAVSPGTLTPTGVVSGPAATPTAQHLRQSSFEIPDDV
modifications: left off: small tags and cut ends
Kd (biotinylated TEAD): 570 nM

B3: GSGDCLPHLKRCKADNDCCGKKCKRRGTNAEKRCREPKSSDKTHTPDEYIERAKECCKKQDIQCCLRIFDESKDPNVMLICLFCW (peptide)
chain: GSGDCLPHLKRCKADNDCCGKKCKRRGTNAEKRCREPKSSDKTHTPDEYIERAKECCKKQDIQCCLRIFDESKDPNVMLICLFCW
cell penetration [2]: high cell penetration
